Assay results reported in patent US10450368 (DUKE UNIVERSITY, dated 2019).

Columns and labels:
[1] = biological target: T1, SSA; experiment: AtheNA, Ab 12.5 ug/ml
T1 construct: also called SSA (Ro)
Text: (§1) AtheNA Multi-Lyte ANA Plus Test System is one such assay. This is luminex-based assay, which is also used to screen patient sera.

[2] = biological target: T2, SSB (UniProt P05455 1-408); experiment: AtheNA, Ab 12.5 ug/ml
T2 sequence: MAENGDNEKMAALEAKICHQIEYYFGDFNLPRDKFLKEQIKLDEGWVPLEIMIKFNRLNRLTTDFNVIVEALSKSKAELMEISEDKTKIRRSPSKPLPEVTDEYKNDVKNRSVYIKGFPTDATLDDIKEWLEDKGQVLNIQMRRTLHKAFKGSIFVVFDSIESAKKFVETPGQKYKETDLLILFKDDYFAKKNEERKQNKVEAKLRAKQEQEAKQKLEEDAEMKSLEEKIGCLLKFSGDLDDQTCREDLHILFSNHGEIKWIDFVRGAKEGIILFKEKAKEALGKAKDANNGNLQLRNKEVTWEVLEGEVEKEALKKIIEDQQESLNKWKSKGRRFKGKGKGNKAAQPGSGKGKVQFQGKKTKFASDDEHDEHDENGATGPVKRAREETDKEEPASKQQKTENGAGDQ
Text: as §1

[3] = biological target: T3, Sm (Smith antigen); experiment: AtheNA, Ab 12.5 ug/ml
T3 construct: Protein complex
Text: as §1

[4] = biological target: T4, RNP (ribonucleoprotein); experiment: AtheNA, Ab 12.5 ug/ml
T4 construct: Protein-RNA complex
Text: as §1

[5] = biological target: T5, Scl-70 (UniProt P11387 1-765); experiment: AtheNA, Ab 12.5 ug/ml
T5 sequence: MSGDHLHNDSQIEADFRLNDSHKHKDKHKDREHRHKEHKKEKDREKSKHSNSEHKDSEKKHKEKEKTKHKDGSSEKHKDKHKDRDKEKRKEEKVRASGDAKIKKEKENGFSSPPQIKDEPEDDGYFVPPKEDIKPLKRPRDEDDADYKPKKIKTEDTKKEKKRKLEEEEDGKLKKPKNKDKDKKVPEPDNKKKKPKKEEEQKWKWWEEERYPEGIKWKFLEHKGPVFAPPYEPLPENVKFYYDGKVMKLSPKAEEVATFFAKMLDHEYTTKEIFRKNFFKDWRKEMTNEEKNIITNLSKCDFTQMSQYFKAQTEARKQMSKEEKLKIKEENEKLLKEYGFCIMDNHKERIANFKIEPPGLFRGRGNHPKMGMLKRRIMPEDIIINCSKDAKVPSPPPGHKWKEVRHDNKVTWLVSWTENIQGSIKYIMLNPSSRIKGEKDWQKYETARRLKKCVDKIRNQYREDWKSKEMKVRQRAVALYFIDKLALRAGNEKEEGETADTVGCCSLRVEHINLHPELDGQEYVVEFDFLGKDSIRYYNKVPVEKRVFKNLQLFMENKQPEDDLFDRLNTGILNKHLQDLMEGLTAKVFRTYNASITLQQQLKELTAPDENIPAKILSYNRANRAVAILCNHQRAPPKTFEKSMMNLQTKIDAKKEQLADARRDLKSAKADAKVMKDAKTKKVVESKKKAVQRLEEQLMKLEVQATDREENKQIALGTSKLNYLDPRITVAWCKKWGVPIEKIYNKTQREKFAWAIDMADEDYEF
Text: as §1

[6] = biological target: T6, Histones; experiment: AtheNA, Ab 12.5 ug/ml
T6 construct: Mixture of proteins
Text: as §1

[7] = biological target: T7, CH505.TF mutant gp120 M6 (HIV-1); experiment: direct-binding ELISA (OD450), panel 'CH505.TF gp120 M6'
T7 construct: domain: gp120

B1: CH493 (antibody, V domains shown)
VH: QVRLLQYGGGVKRPGASMTISCVASGYNFNDYYIHWVRQAPGQGLELMGWIDPSGGRTDYAGAFGDRVSMYRDKSMNTLYMDLRSLRSGDTAMYYCVRNVGTAGSLLHYDHWGLGVMVTVSS
VL: EIVLTQSPATLSVSPGERVTLSCRASQSVRNNLAWYRQKRGQAPRLLIYGASTRATGIPARFSGSGSGTEFTLTISSMQSEDFAVYYCQQYNNWWTFGQGTKVEIK
notes: also called CH235.9; DH493
Work on B1 yielded an AtheNA signal [1] of 54, an AtheNA signal [2] of 22 and an AtheNA signal [3] of 42. The AtheNA signal [4] was 49, the AtheNA signal [5] was 26 and the AtheNA signal [6] was 200. The “EC50 (read off the curve)” value [7] was roughly 0.5 µg/mL.
